Source: US11278600B2, “Human alpha-galactosidase variants” (Codexis, Inc., priority 2014, dated 2022)
Where a chain is given by its changes, count along the chain named.

B1: 129 (protein)
chain: LDNGLARTPTMGWLHWERFMCNLDCQEEPDSCISEKLFMEMAELMVSEGWKDAGYEYLCIDDCWMAPQRDSEGRLQADPQRFPHGIRQLANYVHSKGLKLGIYADVGNKTCAGFPGSFGYYDIDAQTFADWGVDLLKFDGCYCDSLENLADGYKHMSLALNRTGRSIVYSCEWPLYMWPFQKPNYTEIRQYCNHWRNFADIDDSWKSIKSILDWTSFNQERIVDVAGPGGWNDPDMLVIGNFGLSWNQQVTQMALWAIMAAPLFMSNDLRHISPQAKALLQDKDVIAINQDPLGKQGYQLRQGDNFEVWERPLSGLAWAVAMINRQEIGGPRSYTIAVASLGKGVACNPACFITQLLPVKRKLGFYEWTSRLRSHINPTGTVLLQLENTMQGSKDLLL
modifications: Synthetic Polypeptide sequence of Variant No. 129 of mature Human GLA
B2: 134 (protein)
chain: B1 chain with N91Q, G392M
modifications: Synthetic Polypeptide sequence of Variant No. 134 of mature Human GLA
B3: 139 (protein)
chain: B1 chain with Q385I, G392M
modifications: Synthetic Polypeptide sequence of Variant No. 139 of mature Human GLA
B4: 140 (protein)
chain: B1 chain with Q385L, G392M
modifications: Synthetic Polypeptide sequence of Variant No. 140 of mature Human GLA
B5: 36 (protein)
chain: B1 chain with A350G, G392M
modifications: Synthetic Polypeptide sequence of Variant No. 36 of mature Human GLA
B6: 136 (protein)
chain: B1 chain with Q249A, G392M
modifications: Synthetic Polypeptide sequence of Variant No. 136 of mature Human GLA
B7: 138 (protein)
chain: B1 chain with Q385H, G392M
modifications: Synthetic Polypeptide sequence of Variant No. 138 of mature Human GLA
B8: 133 (protein)
chain: B1 chain with N388R, G392M
modifications: Synthetic Polypeptide sequence of Variant No. 133 of mature Human GLA
B9: 135 (protein)
chain: B1 chain with Q190S, T369D, G392M
modifications: Synthetic Polypeptide sequence of Variant No. 135 of mature Human GLA
B10: 137 (protein)
chain: B1 chain with Q302A, G392M
modifications: Synthetic Polypeptide sequence of Variant No. 13 of mature Human GLA
B11: 141 (protein)
chain: B1 chain with Q391G, G392M
modifications: Synthetic Polypeptide sequence of Variant No. 141 of mature Human GLA
B12: 142 (protein)
chain: B1 chain with Q80A, G392M
modifications: Synthetic Polypeptide sequence of Variant No. 142 of mature Human GLA
B13: 132 (protein)
chain: B1 chain with M39Y, G392M
modifications: Synthetic Polypeptide sequence of Variant No. 132 of mature Human GLA
B14: 130 (protein)
chain: B1 chain with G392P
modifications: Synthetic Polypeptide sequence of Variant No. 130 of mature Human GLA
B15: 37 (protein)
chain: B1 chain with D105A, G392M
modifications: Synthetic Polypeptide sequence of Variant No. 37 of mature Human GLA
B16: 131 (protein)
chain: B1 chain with G392S
modifications: Synthetic Polypeptide sequence of Variant No. 131 of mature Human GLA

Key:
Type in all cases: biochemical
[1] = HTP-analysis of yeast culture supernatants, no challenge (MUGal hydrolysis); details: activity of the variant/activity of WT GLA (SEQ ID NO: 5), yeast supernatant
Summary of the method: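 GLA variants expressed in yeast INVSc1, secreted into SD-Ura broth over 66-84 h at 30° C; clarified supernatants tested without challenge. Supernatant mixed with McIlvaine buffer pH 4.8 and 2 mM MUGal (citrate/KCl, pH 4.6), 37° C for 30-180 min, carbonate-quenched, fluorescence Ex 355/Em 448 nm.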

[2] = HTP-analysis of supernatants pretreated with acid (MUGal hydrolysis); details: challenge at pH 4.2; activity of the variant/activity of WT GLA (SEQ ID NO: 5); yeast supernatant
Summary of the method: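 Supernatants from INVSc1 yeast secreting GLA variants were challenged at 37° C. for 1-3 h in McIlvaine buffer at pH 3.3-4.3. Residual activity was then measured on 4 mM MUGal substrate stock at pH 4.8 with citrate buffer pH 4.3, over 30-180 min at 37° C. Reactions were quenched with sodium carbonate and read by fluorescence (Ex 355/Em 448 nm).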

[3] = HTP-analysis of supernatants pretreated with base (MUGal hydrolysis); details: challenge at pH 7.1; activity of the variant/activity of WT GLA (SEQ ID NO: 5); yeast supernatant
Summary of the method: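 GLA variants were secreted by transformed INVSc1 yeast grown 66-84 h at 30° C. Supernatants were exposed to neutral-to-basic buffers (pH 7.0-9.7) at 37° C for 1-18 h, then assayed with MUGal in acidic citrate/McIlvaine buffer, with fluorescence read after quenching.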

Molecule	Relative Activity of GLA Variants After No Challenge (NC) [1]	Relative Activity of GLA Variants After Challenge at pH 4.2 [2]	Relative Activity of GLA Variants After Challenge at pH 7.1 [3]
B1	+ (+ = 0.5 to 1.5 relative activity over WT GLA (SEQ ID NO: 5))	++ (++ = >1.5 to 2.5 relative activity over WT GLA (SEQ ID NO: 5))	++ (++ = >1.5 to 2.5 relative activity over WT GLA (SEQ ID NO: 5))
B2	+ (+ = 0.5 to 1.5 relative activity over WT GLA (SEQ ID NO: 5))	+ (+ = 0.5 to 1.5 relative activity over WT GLA (SEQ ID NO: 5))	+ (+ = 0.5 to 1.5 relative activity over WT GLA (SEQ ID NO: 5))
B3	+ (+ = 0.5 to 1.5 relative activity over WT GLA (SEQ ID NO: 5))	+ (+ = 0.5 to 1.5 relative activity over WT GLA (SEQ ID NO: 5))	+ (+ = 0.5 to 1.5 relative activity over WT GLA (SEQ ID NO: 5))
B4	++ (++ = >1.5 to 2.5 relative activity over WT GLA (SEQ ID NO: 5))	++ (++ = >1.5 to 2.5 relative activity over WT GLA (SEQ ID NO: 5))	++ (++ = >1.5 to 2.5 relative activity over WT GLA (SEQ ID NO: 5))
B5	+ (+ = 0.5 to 1.5 relative activity over WT GLA (SEQ ID NO: 5))	++ (++ = >1.5 to 2.5 relative activity over WT GLA (SEQ ID NO: 5))	++ (++ = >1.5 to 2.5 relative activity over WT GLA (SEQ ID NO: 5))
B6	+ (+ = 0.5 to 1.5 relative activity over WT GLA (SEQ ID NO: 5))	+ (+ = 0.5 to 1.5 relative activity over WT GLA (SEQ ID NO: 5))	+ (+ = 0.5 to 1.5 relative activity over WT GLA (SEQ ID NO: 5))
B7	++ (++ = >1.5 to 2.5 relative activity over WT GLA (SEQ ID NO: 5))	++ (++ = >1.5 to 2.5 relative activity over WT GLA (SEQ ID NO: 5))	++ (++ = >1.5 to 2.5 relative activity over WT GLA (SEQ ID NO: 5))
B8	+ (+ = 0.5 to 1.5 relative activity over WT GLA (SEQ ID NO: 5))	+ (+ = 0.5 to 1.5 relative activity over WT GLA (SEQ ID NO: 5))	+ (+ = 0.5 to 1.5 relative activity over WT GLA (SEQ ID NO: 5))
B9	++ (++ = >1.5 to 2.5 relative activity over WT GLA (SEQ ID NO: 5))	+++ (+++ = >2.5 relative activity over WT GLA (SEQ ID NO: 5))	++ (++ = >1.5 to 2.5 relative activity over WT GLA (SEQ ID NO: 5))
B10	+ (+ = 0.5 to 1.5 relative activity over WT GLA (SEQ ID NO: 5))	+ (+ = 0.5 to 1.5 relative activity over WT GLA (SEQ ID NO: 5))	+ (+ = 0.5 to 1.5 relative activity over WT GLA (SEQ ID NO: 5))
B11	+ (+ = 0.5 to 1.5 relative activity over WT GLA (SEQ ID NO: 5))	+ (+ = 0.5 to 1.5 relative activity over WT GLA (SEQ ID NO: 5))	+ (+ = 0.5 to 1.5 relative activity over WT GLA (SEQ ID NO: 5))
B12	+ (+ = 0.5 to 1.5 relative activity over WT GLA (SEQ ID NO: 5))	+ (+ = 0.5 to 1.5 relative activity over WT GLA (SEQ ID NO: 5))	+ (+ = 0.5 to 1.5 relative activity over WT GLA (SEQ ID NO: 5))
B13	+ (+ = 0.5 to 1.5 relative activity over WT GLA (SEQ ID NO: 5))	+ (+ = 0.5 to 1.5 relative activity over WT GLA (SEQ ID NO: 5))	+ (+ = 0.5 to 1.5 relative activity over WT GLA (SEQ ID NO: 5))
B14	+ (+ = 0.5 to 1.5 relative activity over WT GLA (SEQ ID NO: 5))	++ (++ = >1.5 to 2.5 relative activity over WT GLA (SEQ ID NO: 5))	+ (+ = 0.5 to 1.5 relative activity over WT GLA (SEQ ID NO: 5))
B15	+ (+ = 0.5 to 1.5 relative activity over WT GLA (SEQ ID NO: 5))	+ (+ = 0.5 to 1.5 relative activity over WT GLA (SEQ ID NO: 5))	+ (+ = 0.5 to 1.5 relative activity over WT GLA (SEQ ID NO: 5))
B16	++ (++ = >1.5 to 2.5 relative activity over WT GLA (SEQ ID NO: 5))	+ (+ = 0.5 to 1.5 relative activity over WT GLA (SEQ ID NO: 5))	++ (++ = >1.5 to 2.5 relative activity over WT GLA (SEQ ID NO: 5))
